Patent US20030175703, “RNA aptamers and methods for identifying the same” (published 2003)
Like-named read-outs stand apart in the source and are kept apart here.

Tests used:
thrombin (F2) [1] = target: T1, thrombin (F2) (human, UniProt P00734;P00734 P00734:328-363,P00734:364-622)
[2] = target: coagulation factor Xa (FXa) (UniProt P00742;P00742 P00742:41-179,P00742:235-488)
[3] = target: T2, coagulation factor IXa (FIXa) (UniProt P00740;P00740 P00740:47-191,P00740:227-461); assay: filter; double-filter nitrocellulose
angiopoietin-2 (Ang2) [4] = target: T3, angiopoietin-2 (Ang2) (UniProt O15123 O15123:19-496)
[5] = target: T2, coagulation factor IXa (FIXa); assay: ±0.05; p287 gives about 1 to 3 nM; settings: stem-loop
[6] = target: T4, coagulation factor IX (FIX) (UniProt P00740 P00740:47-461); assay: ±0.8; p287 gives about 6 to 10 nM; settings: stem-loop
[7] = target: T2, coagulation factor IXa (FIXa); assay: competition; cholesterol has modest effect on affinity
[8] = target: coagulation factor VIIa (FVIIa) (UniProt P08709;P08709 P08709:61-212,P08709:213-466); assay: competition; physiologic conditions
thrombin (F2) [9] = target: T1, thrombin (F2); assay: filter; ±0.7
[10] = target: T2, coagulation factor IXa (FIXa); assay: filter; ±0.2; 500-700 pM in Table 1
[11] = target: T4, coagulation factor IX (FIX); assay: ±0.7
angiopoietin-2 (Ang2) [12] = target: T3, angiopoietin-2 (Ang2); assay: FIG. 27 gives <10 nM; about 1 nM in competition (FIG. 29)

B1: TOG 25 short no stem (ssRNA)
RNA: GGGAACAAAGCUGAAGUACUUAGGG
- Kd (thrombin (F2) [1]): ~1000 nM

B2: E9-6 (ssRNA)
RNA: GGGAGAGAGGAAGAGGGAUGGGCCAGAAGCUAAACACUCAUAACCACGCUGAACCCCCCAACCAUAACCCAGAGGUCGAU
- Kd [2]: 95.1 nM

B3: D4-2 (ssRNA)
RNA: GGGAGAGAGGAAGAGGGAUGGGAACUUAGCCUCAGCGAGAUAACGCUUGGCCCCGCUAAGACCAUAACCCAGAGGUCGAU
- Kd [2]: 540 nM

B4: 9.27 (ssRNA)
RNA: GGGAGAGAGGAAGAGGGAUGGGUAAUAACUGUAUGGUGAACCCACCCAAACUCCCAUGGCUACAUAACCCAGAGGUCGAUAGUACUGGAUCCCCCC
modifications: 2'-F pyrimidines
- Kd [3]: 1.64 nM

B5: Ang2 aptamer 11-3 (ssRNA)
RNA: GGGAGGACGAUGCGGUUAACCAUCAGCUCAUGGCCCCUGCCCUCUCAAGGACCACCAGACGACUCGCUGAGGAUCCGAGA
modifications: 2'-F
- Kd (angiopoietin-2 (Ang2) [4]): ~10 nM

B6: E10-6 (ssRNA)
RNA: GGGAGAGAGGAAGAGGGAUGGGGCCGUCGCCAGGAAUCAAACUGCUACUCCAUCCCGGGCACAUAACCCAGAGGUCGAU
- Kd [2]: 85.7 nM

B7: 9.20 (ssRNA)
RNA: GGGAGAGAGGAAGAGGGAUGGGGACUAUACCGGCAAUCGUGCAUCCCCUGGACCUAACAAUACAUAACCCAGAGGUCGAUAGUACUGGAUCCCCCC
modifications: 2'-F pyrimidines
- Kd [3]: 0.49 nM

B8: Ang2 aptamer 9-5 (ssRNA)
RNA: GGGAGGACGAUGCGGCGAUCUUUUCGUCAACCGCACGUUGAACUCGGCUCGGCACCAGACGACUCGCUGAGGAUCCGAGA
modifications: 2'-F
- Kd (angiopoietin-2 (Ang2) [4]): ~5 nM

B9: 9.3t (ssRNA)
RNA: AUGGGGACUAUACCGCGUAAUGCUGCCUCCCCAU
- Kd [5]: 0.58 nM
- Kd [6]: 4.7 nM

B10: 9.3t-C (ssRNA)
RNA: AUGGGGACUAUACCGCGUAAUGCUGCCUCCCCAU
modifications: 5' cholesterol
- binding result [7]: binds

B11: 9.25 (ssRNA)
RNA: GGGAGAGAGGAAGAGGGAUGGGGACCAUAACUCUAACGGGUGAAUCCCGCAUCUCGACAAUACAUAACCCAGAGGUCGAUAGUACUGGAUCCCC
modifications: 2'-F pyrimidines
- Kd [3]: 0.49 nM

B12: TOG 25 short loop U1 (ssRNA)
RNA: GGGAACAAAGCAGAAGUACUUACCC
- Kd (thrombin (F2) [1]): ~250 nM

B13: 10.15 (ssRNA)
RNA: GGGAGAGAGGAAGAGGGAUGGGAAGCUCCAUCCAAGCGACGACACGCUCGUCCCGAAAAGAAUCAUAACCCAGAGGUCGAU
modifications: 2'-F pyrimidines
- Kd [8]: ~6.33 nM

B14: TOG 25 short loop U2 (ssRNA)
RNA: GGGAACAAAGCUGAAGAACUUACCC
- Kd (thrombin (F2) [1]): ~1 nM

B15: E9-10 (ssRNA)
RNA: GGGAGAGAGGAAGAGGGAUGGGCCAGAACCAACUGCGGUGAACCCCCCAUACCGCGACACAUCAUAACCCAGAGGUCGAU
- Kd [2]: 130 nM

B16: 9.19 (ssRNA)
RNA: GGGAGAGAGGAAGAGGGAUGGGACCAUAACGACUACUCGUGAAUCCCACCAUCAGCGCACAACAUAACCCAGAGGUCGAUAGUACUGGAUCCCCCC
modifications: 2'-F pyrimidines
- Kd [3]: 0.707 nM

B17: F11-10 (ssRNA)
RNA: GGGAGAGAGGAAGAGGGAUGGGCUCGGCAGAAGACACGCAUUCACCUGGUGCCACCUCGUAACAUAACCCAGAGGUCGAU
- Kd [2]: 84.4 nM

B18: TOG 25 (TOGGLE-25) (ssRNA)
RNA: GGGAGAGAGGAAGAGGGAUGGGGAACAAAGCUGAAGUACUUACCCAAGAUCAUCCCGAACGACAUAACCCAGAGGUCGAUAGUACUGGAUCCCCCC
- Kd (thrombin (F2) [9]): 2.8 nM

B19: D4-9 (ssRNA)
RNA: GGGAGAGAGGAAGAGGGAUGGGUAAGUUGCCCCAGCGAGAUAGUACUUGGCCCCGCUACUAACAUAACCCAGAGGUCGAU
- Kd [2]: > 240 nM

B20: 9.28 (ssRNA)
RNA: GGGAGAGAGGAAGAGGGAUGGGCGCCAUACGCACAUUGCUGCAUCGCCUUCCCGUAAGAACCAUAACCCAGAGGUCGAUAGUACUGGAUCCCCCC
modifications: 2'-F pyrimidines
- Kd [3]: 0.592 nM

B21: TOG 25 short (TOGGLE-25t) (ssRNA)
RNA: GGGAACAAAGCUGAAGUACUUACCC
- Kd (thrombin (F2) [1]): ~1 nM

B22: RNA 9.3 (ssRNA)
RNA: GGGAGAGAGGAAGAGGGAUGGGGACUAUACCGCGUAAUGCUGCCUCCCCAUUCCGGAACGCUCAUAACCCAGAGGUCGAUAGUACUGGAUCCCCCC
modifications: 2'-F pyrimidines
- Kd [10]: 0.65 nM
- Kd [11]: 3.96 nM

B23: 9.26 (ssRNA)
RNA: GGGAGAGAGGAAGAGGGAUGGGUGAUAACCACUCUGGUGAACCCCUCCCGACUUGCUCGCACAUAACCCAGAGGUCGAUAGUACUGGAUCCCCCC
modifications: 2'-F pyrimidines
- Kd [3]: 0.49 nM

B24: ANG11-1 (ssRNA)
RNA: GGGAGGACGAUGCGGACUAGCCUCAUCAGCUCAUGUGCCCCUCCGCCUGGAUCACCAGACGACUCGCUGAGGAUCCGAGA
modifications: 2'-F
- Kd (angiopoietin-2 (Ang2) [12]): ~5 nM
